Experimental data from paper PMC8162731.

System: CC(C)(O)[C@@H](O)C(=O)O
Test: purified protein
Type: biochemical, Synechocystis sp. PCC 6803
Conditions: aerobic

Substance	Km (as-purified enzyme)	Km (as-purified enzyme 0.05 μM, pH 8.0, 50 °C)
SnDHAD (Synechocystis sp. PCC 6803 substr. Kazusa; Y477H)	108.9 ± 10.7 µM	–
SnDHAD (Synechocystis sp. PCC 6803 substr. Kazusa)	–	136.3 ± 9.0 µM
